The values that follow come from IntAct's records for PubMed 29039417.

B1: BBSome complex member BBS5 (Homo sapiens), Q8N3I7 (parent)
chain: MSVLDALWEDRDVRFDLSAQQMKTRPGEVLIDCLDSIEDTKGNNGDRGRLLVTNLRILWHSLALSRVNVSVGYNCILNITTRTANSKLRGQTEALYILTKCNSTRFEFIFTNLVPGSPRLFTSVMAVHRAYETSKMYRDFKLRSALIQNKQLRLLPQEHVYDKINGVWNLSSDQGNLGTFFITNVRIVWHANMNDSFNVSIPYLQIRSIKIRDSKFGLALVIESSQQSGGYVLGFKIDPVEKLQESVKEINSLHKVYSASPIFGVDYEMEEKPQPLEALTVEQIQDDVEIDSDGHTDAFVAYFADGNKQQDREPVFSEELGLAIEKLKDGFTLQGLWEVMS
partner: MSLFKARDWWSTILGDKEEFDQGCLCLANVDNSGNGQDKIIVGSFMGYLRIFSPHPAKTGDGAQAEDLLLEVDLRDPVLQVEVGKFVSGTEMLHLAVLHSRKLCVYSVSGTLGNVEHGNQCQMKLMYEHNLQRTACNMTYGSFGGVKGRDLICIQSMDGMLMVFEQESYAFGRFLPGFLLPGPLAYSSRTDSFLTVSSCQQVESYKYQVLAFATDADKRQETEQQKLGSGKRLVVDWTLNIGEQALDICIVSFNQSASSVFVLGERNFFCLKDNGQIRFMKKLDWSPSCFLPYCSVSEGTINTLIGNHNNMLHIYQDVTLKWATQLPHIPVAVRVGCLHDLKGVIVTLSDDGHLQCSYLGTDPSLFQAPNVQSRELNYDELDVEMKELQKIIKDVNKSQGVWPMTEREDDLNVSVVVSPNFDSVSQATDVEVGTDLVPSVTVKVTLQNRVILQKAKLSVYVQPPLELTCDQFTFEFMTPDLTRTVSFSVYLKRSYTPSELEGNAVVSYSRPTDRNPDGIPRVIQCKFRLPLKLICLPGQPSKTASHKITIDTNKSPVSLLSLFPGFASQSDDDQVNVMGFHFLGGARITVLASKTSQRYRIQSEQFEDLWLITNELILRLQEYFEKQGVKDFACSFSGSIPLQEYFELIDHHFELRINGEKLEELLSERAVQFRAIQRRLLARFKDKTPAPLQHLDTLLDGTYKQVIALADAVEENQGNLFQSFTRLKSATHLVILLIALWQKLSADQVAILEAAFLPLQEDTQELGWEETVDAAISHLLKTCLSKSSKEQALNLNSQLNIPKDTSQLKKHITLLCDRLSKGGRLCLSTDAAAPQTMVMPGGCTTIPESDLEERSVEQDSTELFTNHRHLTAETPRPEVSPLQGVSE
B2: Isoform 2 of Bardet-Biedl syndrome 7 protein (Homo sapiens), Q8IWZ6-2 (parent)
chain: MDLILNRMDYLQVGVTSQKTMKLIPASRHRATQKVVIGDHDGVVMCFGMKKGEAAAVFKTLPGPKIARLELGGVINTPQEKIFIAAASEIRGFTKRGKQFLSFETNLTESIKAMHISGSDLFLSASYIYNHYCDCKDQHYYLSGDKINDVICLPVERLSRITPVLACQDRVLRVLQGSDVMYAVEVPGPPTVLALHNGNGGDSGEDLLFGTSDGKLALIQITTSKPVRKWEIQNEKKRGGILCIDSFDIVGDGVKDLLVGRDDGMVEVYSFDNANEPVLRFDQMLSESVTSIQGGCVGKDSYDEIVVSTYSGWVTGLTTEPIHKESGPGEELKINQEMQNKISSLRNELEHLQYKVLQERENYQQSSQSSKAKSAVPSFGINDKFTLNKDDASYSLILEVQTAIDNVLIQSDVPIDLLDVDKNSAVVSFSSCDSESNDNFLLATYRCQADTTRLELKIRSIEGQYGTLQAYVTPRIQPKTCQVRQYHIKPLSLHQRTHFIDHDRPMNTLTLTGQFSFAEVHSWVVFCLPEVPEKPPAGECVTFYFQNTFLDTQLESTYRKGEGVFKSDNISTISILKDVLSKEATKRKINLNISYEINEVSVKHTLKLIHPKLEYQLLLAKKVQLIDALKELQIHEGNTNFLIPEYHCILEEADHLQEEYKKQPAHLERLYG
partner: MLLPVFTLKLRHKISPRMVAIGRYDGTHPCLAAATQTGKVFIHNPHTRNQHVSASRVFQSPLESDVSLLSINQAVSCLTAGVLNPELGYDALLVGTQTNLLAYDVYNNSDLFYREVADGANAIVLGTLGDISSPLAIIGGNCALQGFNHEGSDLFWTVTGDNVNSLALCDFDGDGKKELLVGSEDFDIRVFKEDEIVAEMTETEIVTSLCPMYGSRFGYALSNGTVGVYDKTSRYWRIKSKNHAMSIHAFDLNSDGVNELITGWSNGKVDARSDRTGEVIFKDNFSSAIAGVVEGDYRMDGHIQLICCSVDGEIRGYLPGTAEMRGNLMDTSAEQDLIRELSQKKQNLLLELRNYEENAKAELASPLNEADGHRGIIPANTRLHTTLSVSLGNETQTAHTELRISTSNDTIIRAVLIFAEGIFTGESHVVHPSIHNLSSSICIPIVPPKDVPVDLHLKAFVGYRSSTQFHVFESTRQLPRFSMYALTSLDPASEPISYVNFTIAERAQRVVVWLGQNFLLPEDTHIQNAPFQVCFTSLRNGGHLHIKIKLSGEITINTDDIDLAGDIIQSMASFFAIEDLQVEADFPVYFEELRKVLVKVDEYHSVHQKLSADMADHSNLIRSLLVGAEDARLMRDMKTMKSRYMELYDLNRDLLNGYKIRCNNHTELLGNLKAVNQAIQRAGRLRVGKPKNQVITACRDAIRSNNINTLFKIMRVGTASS

The variants in one experiment derive from B1. To be noted: with pthb1_human BBS9, Q3SYG4.
For G335A, the “effect of a mutation on the interaction” value was “with no effect”.

Take G335E: the “effect of a mutation on the interaction” value is given as “with no effect”.

G335K: the “effect of a mutation on the interaction” value is given as “with no effect”. In the case of E338K, the “effect of a mutation on the interaction” value is listed as “with no effect”. Regarding E338A, the “effect of a mutation on the interaction” value is given as “with no effect”. For the variant L333K, the “effect of a mutation on the interaction” value is “with no effect”.

For the variant L333E, the “effect of a mutation on the interaction” value was “with no effect”. Consider L333A, for which the “effect of a mutation on the interaction” value is recorded as “with no effect”. With L336K, the “effect of a mutation on the interaction” value was “with no effect”. Take L336E: the “effect of a mutation on the interaction” value is “with no effect”. In the case of L336A, the “effect of a mutation on the interaction” value is listed as “with no effect”. Regarding W337E, the “effect of a mutation on the interaction” value is recorded as “with no effect”. As for W337K, the “effect of a mutation on the interaction” value was “with no effect”. As for W337A, the “effect of a mutation on the interaction” value is given as “with no effect”. As to K328E, the “effect of a mutation on the interaction” value is recorded as “with no effect”. With K328A, the “effect of a mutation on the interaction” value is recorded as “with no effect”. Regarding F331S, the “effect of a mutation on the interaction” value is recorded as “disrupting interaction strength”. F331A: the “effect of a mutation on the interaction” value was “with no effect”.

Consider F331E, for which the “effect of a mutation on the interaction” value is “disrupting interaction strength”. For F331K, the “effect of a mutation on the interaction” value is “with no effect”. Turning to M340A, the “effect of a mutation on the interaction” value was “with no effect”.

For the variant M340E, the “effect of a mutation on the interaction” value is given as “with no effect”. As for M340K, the “effect of a mutation on the interaction” value is on record as “with no effect”. Take G330K: the “effect of a mutation on the interaction” value is recorded as “with no effect”. With G330A, the “effect of a mutation on the interaction” value was “with no effect”. Regarding G330E, the “effect of a mutation on the interaction” value was “with no effect”. For D329E, the “effect of a mutation on the interaction” value is on record as “with no effect”. On to D329A, for which the “effect of a mutation on the interaction” value is reported as “with no effect”. Consider D329K, for which the “effect of a mutation on the interaction” value is reported as “with no effect”. As to L327A, the “effect of a mutation on the interaction” value is reported as “with no effect”. Consider L327K, for which the “effect of a mutation on the interaction” value is on record as “with no effect”. In the case of L327E, the “effect of a mutation on the interaction” value is “with no effect”. E325A: the “effect of a mutation on the interaction” value was “with no effect”. As to E325K, the “effect of a mutation on the interaction” value was “with no effect”. Same read-out and setting: the entry for Q334E is “with no effect”; for Q334K it is “with no effect”. The same measure, in the same setting: the value for Q334A was “with no effect”; that for T332K was “with no effect”.

Take T332E: the “effect of a mutation on the interaction” value is “with no effect”. Regarding T332A, the “effect of a mutation on the interaction” value was “with no effect”. As to S341A, the “effect of a mutation on the interaction” value is reported as “with no effect”. On to S341K, for which the “effect of a mutation on the interaction” value is given as “with no effect”. For S341E, the “effect of a mutation on the interaction” value was “with no effect”.

On to K326A, for which the “effect of a mutation on the interaction” value is “with no effect”.

Regarding K326E, the “effect of a mutation on the interaction” value is reported as “with no effect”.

I324E: the “effect of a mutation on the interaction” value was “with no effect”.

As to I324K, the “effect of a mutation on the interaction” value is recorded as “with no effect”. The same measure, in the same setting: the value for V339E was “with no effect”. In the case of V339A, the “effect of a mutation on the interaction” value is “with no effect”. The same measure, in the same setting: the value for V339K was “with no effect”.

In another experiment the parent is B2. To be noted: with bbs2_human BBS2, Q9BXC9.
On to L332K, for which the “effect of a mutation on the interaction” value is on record as “with no effect”. As to L332A, the “effect of a mutation on the interaction” value is on record as “with no effect”. Turning to L332E, the “effect of a mutation on the interaction” value was “with no effect”. Same read-out and setting: the entry for K333E is “with no effect”.

K333A: the “effect of a mutation on the interaction” value was “with no effect”. The same measure, in the same setting: the value for E337K was “with no effect”; that for E337A was “with no effect”.

As for K341A, the “effect of a mutation on the interaction” value is given as “with no effect”. Turning to K341E, the “effect of a mutation on the interaction” value is on record as “with no effect”. As to N340E, the “effect of a mutation on the interaction” value is reported as “with no effect”. With N340A, the “effect of a mutation on the interaction” value is reported as “with no effect”. Same read-out and setting: the entry for N340K is “with no effect”. As for Q339A, the “effect of a mutation on the interaction” value is given as “with no effect”. Take Q339E: the “effect of a mutation on the interaction” value is “with no effect”. As for Q339K, the “effect of a mutation on the interaction” value is given as “with no effect”. P328A: the “effect of a mutation on the interaction” value was “with no effect”. With P328K, the “effect of a mutation on the interaction” value is recorded as “with no effect”.

In the case of P328E, the “effect of a mutation on the interaction” value is reported as “with no effect”. Turning to M338E, the “effect of a mutation on the interaction” value was “with no effect”. In the case of M338K, the “effect of a mutation on the interaction” value is reported as “with no effect”.

M338A: the “effect of a mutation on the interaction” value is listed as “with no effect”. On to I334E, for which the “effect of a mutation on the interaction” value was “with no effect”. As to I334K, the “effect of a mutation on the interaction” value is recorded as “with no effect”. On to I334A, for which the “effect of a mutation on the interaction” value was “with no effect”. With N335A, the “effect of a mutation on the interaction” value was “with no effect”. Regarding N335K, the “effect of a mutation on the interaction” value is “with no effect”. Regarding N335E, the “effect of a mutation on the interaction” value is given as “with no effect”. As to E330A, the “effect of a mutation on the interaction” value is given as “with no effect”. For the variant E330K, the “effect of a mutation on the interaction” value is recorded as “with no effect”. Take G329A: the “effect of a mutation on the interaction” value is reported as “with no effect”.

G329K: the “effect of a mutation on the interaction” value is recorded as “with no effect”. With G329E, the “effect of a mutation on the interaction” value is listed as “with no effect”. As to G327K, the “effect of a mutation on the interaction” value was “with no effect”. For the variant G327E, the “effect of a mutation on the interaction” value is given as “with no effect”. For the variant G327A, the “effect of a mutation on the interaction” value is recorded as “with no effect”. Regarding E331K, the “effect of a mutation on the interaction” value is “with no effect”. Take E331A: the “effect of a mutation on the interaction” value is recorded as “with no effect”. For Q336K, the “effect of a mutation on the interaction” value was “with no effect”. As to Q336E, the “effect of a mutation on the interaction” value is on record as “with no effect”. Consider Q336A, for which the “effect of a mutation on the interaction” value is given as “with no effect”. For S326A, the “effect of a mutation on the interaction” value is on record as “with no effect”. For the variant S326K, the “effect of a mutation on the interaction” value is listed as “with no effect”. In the case of S326E, the “effect of a mutation on the interaction” value is listed as “with no effect”.
